Where a chain is given by its changes, count along the chain named. Numbers in names are those of the source.
B1: RDE-4 truncation R3 (dsRBM3 only, begins with M244) (domain or fragment, C. elegans, UniProt G5EBF5 244-385, looked up)
chain: MVDVIENLEEAEHLLEIQDQASKIKDKHSALIDILSDKKRFSDYSMDFNVLSVSTMGIHQVLLEISFRRLVSPDPDDLEMGAEHTQTEEIMKATAEKEKLRKKNMPDSGPLVFAGHGSSAEEAKQCACKSAIIHFNTYDFTD
B2: RDE-4 dsRBM1 and dsRBM2 point mutant R1^AAR2^AAR3 (K89A/K90A/K217A/K218A) (natural protein, C. elegans, UniProt G5EBF5 1-385, looked up)
chain: MDLTKLTFESVFGGSDVPMKPSRSEDNKTPRNRTDLEMFLKKTPLMVLEEAAKAVYQKTPTWGTVELPEGFEMTLILNEITVKGQATSAAAARQKAAVEYLRKVVEKGKHEIFFIPGTTKEEALSNIDQISDKAEELKRSTSDAVQDNDNDDSIPTSAEFPPGISPTENWVGKLQEKSQKSKLQAPIYEDSKNERTERFLVICTMCNQKTRGIRSKAADAKNLAAWLMWKALEDGIESLESYDMVDVIENLEEAEHLLEIQDQASKIKDKHSALIDILSDKKRFSDYSMDFNVLSVSTMGIHQVLLEISFRRLVSPDPDDLEMGAEHTQTEEIMKATAEKEKLRKKNMPDSGPLVFAGHGSSAEEAKQCACKSAIIHFNTYDFTD
B3: RDE-4 dsRBM1 point mutant R1^AAR2R3 (K89A/K90A) (natural protein, C. elegans, UniProt G5EBF5 1-385, looked up)
chain: B2 chain with A217K, A218K
B4: RDE-4 dsRBM2 point mutant R1R2^AAR3 (K217A/K218A) (natural protein, C. elegans, UniProt G5EBF5 1-385, looked up)
chain: B2 chain with A89K, A90K

Biological target: DCR-1•DRH-1 complex (DCR-1•(OSF)DRH-1) (C. elegans, UniProt P34529 1-1910; G5EDI8 1-1037)
Experiment: pull-down

Binder	percent recovery normalized to WT RDE-4 [%]
B1	~72
B2	> 100
B3	> 100
B4	> 100
